Reference: PMC11349179, “Comparative analysis of the LARP1 C-terminal DM15 region through Coelomate evolution” (PLOS ONE, 2024)
Numbering of substitutions follows the chain as printed.

Experiments:
DmDM15 [1] = target: T1, DmDM15 (Drosophila melanogaster, UniProt Q9VAW5); experiment: differential scanning fluorimetry (SYPRO Orange); format: binding; conditions: 5 uM protein, 500 uM ligand; 50 mM Tris-HCl pH 8, 100 mM NaCl, 0.6 mM DTT, 10% glycerol
T1 construct: gene larp; C-terminal DM15 region; E. coli BL21(DE3); His6-MBP tag removed with TEV protease; monomer

HsDM15 [2] = target: T2, HsDM15 (Homo sapiens, UniProt Q6PKG0); experiment: differential scanning fluorimetry (SYPRO Orange); format: binding; conditions: 5 uM protein, 500 uM ligand; 50 mM Tris-HCl pH 8, 100 mM NaCl, 0.6 mM DTT, 10% glycerol
T2 construct: gene LARP1; C-terminal DM15 region; E. coli BL21(DE3); His6-MBP tag removed with TEV protease; monomer; residues 796-941 used in simulation only

DrDM15 = target: T3, DrDM15 (Danio rerio, UniProt A0A8M9P457); experiment: differential scanning fluorimetry (SYPRO Orange); format: binding; conditions: 5 uM protein, 500 uM ligand; 50 mM Tris-HCl pH 8, 100 mM NaCl, 0.6 mM DTT, 10% glycerol
T3 construct: gene larp1; C-terminal DM15 region, residues 754-904; E. coli BL21(DE3); His6-MBP tag removed with TEV protease; Gly6 linker after TEV site; monomer

DrDM15 (zebrafish) = DrDM15 (zebrafish) (UniProt F1R0U5); experiment: EMSA; conditions: 5' m7G cap (Vaccinia capping), EMSA: 20 mM Tris-HCl pH 8, 150 mM NaCl, 10% glycerol, 1 mM DTT, 0.5 ug tRNA, 1 ug BSA, pM RNA (95 C, snap cooled), native 7% PAGE, 0.5X TBE
HsDM15 [3] = target: T4, HsDM15 (Homo sapiens, UniProt Q6PKG0-3 796-946); experiment: EMSA; EMSA: 20 mM Tris-HCl pH 8, 150 mM NaCl, 10% glycerol, 1 mM DTT, 0.5 ug tRNA, 1 ug BSA, pM RNA (95 C, snap cooled), 0.5-1 h on ice; native 7% PAGE, 0.5X TBE; conditions: protein: recombinant, tags: His6-MBP removed by TEV, label: 32P in cap
DmDM15 [4] = target: DmDM15 (fruit fly, UniProt A0A0B4K7Y7 1330-1481); experiment: as above; conditions: protein: recombinant, tags: His6-MBP removed by TEV, label: 32P in cap
HsDM15 [5] = target: T4, HsDM15; experiment: EMSA; stated only as picomolar affinity; EMSA: 20 mM Tris-HCl pH 8, 150 mM NaCl, 10% glycerol, 1 mM DTT, 0.5 ug tRNA, 1 ug BSA, pM RNA (95 C, snap cooled), 0.5-1 h on ice; native 7% PAGE, 0.5X TBE; conditions: protein: recombinant; tags: His6-MBP removed by TEV; label: 32P in cap
[6] = 5' end paired in one predicted fold

DmDM15 (fruit fly, UniProt A0A0B4K7Y7 1330-1481), sequence (A0A0B4K7Y7 entry or part of it): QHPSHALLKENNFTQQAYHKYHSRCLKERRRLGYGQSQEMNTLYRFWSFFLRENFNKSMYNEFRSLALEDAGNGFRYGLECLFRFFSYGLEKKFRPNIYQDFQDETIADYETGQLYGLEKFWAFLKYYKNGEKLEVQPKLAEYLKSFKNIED
T3 sequence (A0A8M9P457 778-928): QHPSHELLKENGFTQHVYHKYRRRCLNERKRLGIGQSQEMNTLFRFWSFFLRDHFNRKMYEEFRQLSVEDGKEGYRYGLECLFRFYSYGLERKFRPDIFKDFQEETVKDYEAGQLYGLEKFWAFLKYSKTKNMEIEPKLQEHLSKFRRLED
T1 sequence (Q9VAW5 1330-1481): as the sequence (A0A0B4K7Y7 entry or part of it) above

## C[n+]1cn([C@@H]2O[C@H](COP(=O)(O)OP(=O)(O)OP(=O)(O)O)[C@@H](O)[C@H]2O)c2nc(N)[nH]c(=O)c21 [m^7GTP]
DmDM15 [1]
  Tm: thermal stabilization of all three orthologs in the presence of a cap analog (Fig 3D)
HsDM15 [2]
  Tm: thermal stabilization of all three orthologs in the presence of a cap analog (Fig 3D)
DrDM15
  Tm: thermal stabilization of all three orthologs in the presence of a cap analog (Fig 3D)

## CCUUCUCCCCGGCGGUUAGUGCUGAGAGUGCGGAGUGUGUGC [HsPABPC1 42-mer, capped]
DrDM15 (zebrafish); 0.5-1 h on …
  Kd: 97000 pM

## CCUCUUUUCCGCUUAUCUCUUUGAGAUAAAUGCAUAUUUUUU [HsRPS6_Stem, capped]
DrDM15 (zebrafish); 0.5-1 h on …
  Kd: 7900 pM

## CCUUCUCCCCGCUUAUCUCUUUGAGAUAAAUGCAUAUUUUUU [HsPABPC1_Stem, capped]
DrDM15 (zebrafish); 0.5-1 h on …
  Kd: 6900 pM

## CUUUUGCCAUUGUCAGCCGACGAAGUGCUUUAACCCAAACUA [DmRPL30 42-mer, capped]
DrDM15 (zebrafish); stated only as picomolar affinity, 0.5-1 h on ice
  Kd: < 1000 pM

## CCUCUUUUCCGUGGCGCCUCGGAGGCGUUCAGCUGCUUCAAG [HsRPS6 42-mer, capped]
DrDM15 (zebrafish); 0.5-1 h on …
  Kd: 10000 pM

B1: HsPABPC1 42-mer, capped (structured_RNA)
RNA: CCUUCUCCCCGGCGGUUAGUGCUGAGAGUGCGGAGUGUGUGC
modifications: 5' m7G cap (Vaccinia capping)
HsDM15 [3]; [6]
  Kd: 18 ± 0.06 nM
DmDM15 [4]; [6]
  Kd: 140 ± 0.02 nM

B2: HsRPS6_Stem, capped (structured_RNA)
RNA: CCUCUUUUCCGCUUAUCUCUUUGAGAUAAAUGCAUAUUUUUU
modifications: 5' m7G cap (Vaccinia capping)
HsDM15 [3]; hairpin (predicted)
  Kd: 1.9 ± 0.05 nM
DmDM15 [4]; hairpin (predicted)
  Kd: 29 ± 0.06 nM

B3: HsPABPC1_Stem, capped (structured_RNA)
RNA: B2 RNA with C4U, U5C, U7C, U8C
modifications: 5' m7G cap (Vaccinia capping)
HsDM15 [3]; hairpin (predicted)
  Kd: 1.5 ± 0.04 nM
DmDM15 [4]; hairpin (predicted)
  Kd: 6.1 ± 0.03 nM

B4: HsRPS6 42-mer, capped (structured_RNA)
RNA: CCUCUUUUCCGUGGCGCCUCGGAGGCGUUCAGCUGCUUCAAG
modifications: 5' m7G cap (Vaccinia capping)
HsDM15 [3]; hairpin (predicted)
  Kd: 3.9 ± 0.2 nM
DmDM15 [4]; hairpin (predicted)
  Kd: 58 ± 0.02 nM

B5: DmRPL30 42-mer, capped (ssRNA)
RNA: CUUUUGCCAUUGUCAGCCGACGAAGUGCUUUAACCCAAACUA
modifications: 5' m7G cap (Vaccinia capping)
HsDM15 [5]
  Kd: < 1 nM
